Measured values from US10918733B2, “Lipopeptide- and lipoprotein-conjugates and its use” (HELMHOLTZ-ZENTRUM FUER INFEKTIONSFORSCHUNG GMBH, priority 2009, dated 2021).

Experiments:
Format in all cases: in vivo, C57BL6 mice
[1] = Tolerability during the immunization period; conditions: i.n. or s.c. immunization
Protocol: (§1) Experimental protocol 1: six-eight weeks-old female C57BL6 mice were purchased from Harlan Winkelmann GmbH (Borchen, Germany) and treated in accordance with local and European Community guidelines. Groups of 5 mice each were immunized on day 1, 14 and 28 with 30 μg of Ova (Sigma Chemie, Deisenhofen, Germany) or LPS-free Ova (EndoGrade Ovalbumin, Hyglos GmbH) alone, co-administered with 5 μg of BPPcysMPEG or with 5 to 10 μg of synthetic BPPcysOva^mPEG alone. For intranasal (i.n.) immunization, 10 μl were applied to each naris, whereas for the s.c. the compounds were resuspended in 50 μl of PBS per dose. Serum samples were collected at different time points (day 0, 13, 27 and 38) after immunization and stored at −20° C. prior to determination of Ova-specific antibodies. 96-well Nunc-Immuno MaxiSorp assay plates (Nunc, Roskilde, Denmark) were coated with 100 μl of Ova (Sigma Chemie, Deisenhofen, Germany) at 5 μg/ml in 0.05 M carbonate buffer (pH 8.2) per well. Serial two-fold dilutions of sera or lavages in PBS with 1% BSA and 0.05% Tween 20 were added (100 μl/well), and plates incubated for 2 h at 37° C. […] Endpoint titers were expressed as the reciprocal log2 of the last dilution, which gave an optical density at 405 nm of 0.1 units above the values of the negative controls after 15 to 30 min of incubation. […]

[2] = test system: Ova-specific secretory IgA; experiment: Local Ova-specific secretory IgA in lavages after i.n. immunization (ELISA); conditions: day 38
Protocol: Experimental protocol: at day 38, mice were sacrificed and the final sampling was performed. Vaginal and lung lavages were obtained by flushing the organs with 1 ml of PBS supplemented with 50 mM EDTA, 0.1% BSA, and 10 mM PMSF. Lavages were then centrifuged to remove debris (10 min at 3000×g), and supernatant fluids were stored at −20° C. To determine the concentration of total IgA present in the lung and vaginal lavages, serial dilutions of the corresponding samples were incubated in microtiter plates that were previously coated with goat anti-mouse IgA (Sigma Chemie), as capture antibodies (100 μl/well). Serial dilutions of purified mouse IgA (Sigma Chemie) were used to generate a standard curve.
To investigate the capacity of BPPcysOva^mPEG to stimulate local immune responses given by the i.n. route, we analyzed the production of Ova-specific secretory IgA in lung, nasal and vaginal lavages from immunized animals.
FIG. 5: Humoral responses stimulated following vaccination using BPPcysOva^mPEG. […] At day 38 post primary immunisation, serum samples were collected and the IgG 1 and IgG2c titres of Ova-specific antibodies were determined by ELISA. […] At day 38 post primary immunisation broncho alveolar lavage (BAL), nasal lavages (NL) and Vaginal lavages (VL) were collected and the Ova-specific secretory IgA (sIgA) expression in samples of immunized mice were determined by ELISA.

[3] = test system: Ova-specific IgG1 antibodies; experiment: Serum Ova-specific antibody titers after immunization (ELISA); conditions: i.n.; by the end of the immunization protocol
Protocol: as §1, with “well.” for “well. Serial two-fold dilutions of sera or lavages in PBS with 1% BSA and 0.05% Tween 20 were added (100 μl/well), and plates incubated for 2 h at 37° C.”
FIG. 5: Humoral responses stimulated following vaccination using BPPcysOva^mPEG. […] At day 38 post primary immunisation, serum samples were collected and the IgG 1 and IgG2c titres of Ova-specific antibodies were determined by ELISA. […]

B1: Ova: model antigen ovalbumin (Sigma Chemie) (protein, UniProt P01012 2-386, looked up)
Ovalbumin: GSIGAASMEFCFDVFKELKVHHANENIFYCPIAIMSALAMVYLGAKDSTRTQINKVVRFDKLPGFGDSIEAQCGTSVNVHSSLRDILNQITKPNDVYSFSLASRLYAEERYPILPEYLQCVKELYRGGLEPINFQTAADQARELINSWVESQTNGIIRNVLQPSSVDSQTAMVLVNAIVFKGLWEKAFKDEDTQAMPFRVTEQESKPVQMMYQIGLFRVASMASEKMKILELPFASGTMSMLVLLPDEVSGLEQLESIINFEKLTEWTSSNVMEERKIKVYLPRMKMEEKYNLTSVLMAMGITDVFSSSANLSGISSAESLKISQAVHAAHAEINEAGREVVGSAEAGVDAASVSEEFRADHPFLFCIKHIATNAVLFFGRCVSP
For B1, the “adverse effect during the immunization period” value [1] was “no adverse effect”, the “Ova-specific IgA in lung lavages” value [2] was “failed to stimulate the production of detectable levels” and the “Ova-specific IgG1 endpoint titer in serum” value [3] was ≤ 10^6.
